The values that follow come from patent US20260217824A1 (Bristol-Myers Squibb, published 2026).

Assay [1] addresses T1, FcγRIIB (CD32b) (human, UniProt P31994 43-217).
T1 sequence (looked up): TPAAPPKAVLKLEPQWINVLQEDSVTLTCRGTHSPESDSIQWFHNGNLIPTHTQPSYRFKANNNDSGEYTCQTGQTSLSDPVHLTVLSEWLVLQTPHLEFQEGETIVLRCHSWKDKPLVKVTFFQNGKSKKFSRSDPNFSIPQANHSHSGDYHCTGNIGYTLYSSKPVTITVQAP
Briefly: SPR sensorgrams, Example 10; response axis without unit, no time axis; set-up and concentrations not given.

For assay [2], the target named is T2, FcγRIIIB (CD16b-NA2 variant) (human, UniProt O75015 17-200). Described as above.
In assay [3] the target is T3, FcγRIIIA (CD16a-V158 variant) (human, UniProt P08637 17-208). The description is as above.
Assay [4] deals with T4, FcγRIIA (CD32a-R131 variant) (human, UniProt P12318 36-218).
T4 sequence (looked up): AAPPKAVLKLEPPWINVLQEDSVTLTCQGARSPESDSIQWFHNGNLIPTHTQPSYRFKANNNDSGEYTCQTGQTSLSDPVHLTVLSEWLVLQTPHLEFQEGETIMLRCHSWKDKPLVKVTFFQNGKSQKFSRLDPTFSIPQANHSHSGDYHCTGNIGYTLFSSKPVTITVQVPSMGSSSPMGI
Description: SPR, response as % of Rmax (maximum FcγR capacity), Example 10; set-up and concentrations not given. Background: SPR reads the build-up and loss of mass on a sensor chip optically.

Assay [5] has as its target T5, FcγRIIA (CD32a-H131 variant) (human, UniProt P12318 36-218).
T5 sequence (looked up): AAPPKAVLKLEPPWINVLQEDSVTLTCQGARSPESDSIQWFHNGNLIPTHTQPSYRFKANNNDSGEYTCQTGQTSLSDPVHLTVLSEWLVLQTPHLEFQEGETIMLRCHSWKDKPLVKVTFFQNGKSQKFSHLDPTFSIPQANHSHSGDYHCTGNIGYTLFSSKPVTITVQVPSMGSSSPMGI
The description is as above.

The target of another assay is FcγRI (CD64) (human, UniProt P12314 16-288). The assay is described as above.
The target of assay [6] is T6, cynomolgus TREM-1 on cells (cynomolgus).
T6 construct: Endogenous receptor in dosed monkeys; also called TREM-1 receptors on peripheral blood monocytes and granulocytes of cynomolgus monkeys
T6 chain: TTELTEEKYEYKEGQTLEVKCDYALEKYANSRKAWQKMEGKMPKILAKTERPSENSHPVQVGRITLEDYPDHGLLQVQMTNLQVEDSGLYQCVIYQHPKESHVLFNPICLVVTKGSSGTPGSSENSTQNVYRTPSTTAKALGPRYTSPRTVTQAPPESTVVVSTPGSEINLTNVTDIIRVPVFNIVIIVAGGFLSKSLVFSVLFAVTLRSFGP
Description: estimate of the 2-compartment PK model with TMDD fitted to cynomolgus PK/RO/PD data (mAb affinity for TREM-1); cyno-model estimate (CV 12%) of the TMDD PK/PD fit, not a direct binding assay. As to the method: (§1) A direct-effect inhibitory model was used to describe the PD response. […] The observed (open circle) and model-predicted endpoints (solid line) are provided in FIGS. 16A (0.1 mg/kg subcutaneous dosing) and 16B (10 mg/kg subcutaneous dosing).

The target in assay [7] is T7, CynoTREM1 (as named in Table 3) (cynomolgus).
T7 construct: also called cynomolgus TREM-1
T7 chain: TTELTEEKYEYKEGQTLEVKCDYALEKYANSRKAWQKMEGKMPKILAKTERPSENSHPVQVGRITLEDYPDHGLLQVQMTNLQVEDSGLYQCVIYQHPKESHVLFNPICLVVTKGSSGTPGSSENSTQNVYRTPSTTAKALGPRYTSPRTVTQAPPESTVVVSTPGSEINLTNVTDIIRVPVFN
Briefly: SPR (Biacore).

Assay [8] addresses T6, cynomolgus TREM-1 on cells. Description: cell-based or functional assay.
The target of assay [9] is T6, cynomolgus TREM-1 on cells. Briefly: in vivo receptor occupancy against serum concentration, Emax model, cynomolgus monkeys. As to the method: Upon antibody administration, pharmacokinetics, anti-drug antibodies (ADA), TREM-1 receptor occupancy (RO), and ex vivo pharmacodynamics responses were examined at pre-determined time points.
as §1

Assay [10] concerns the target T2, FcγRIIIB (CD16b-NA2 variant). Briefly: SPR, response as % of Rmax (maximum FcγR capacity), Example 10; set-up and concentrations not given.
Assay [11] deals with T4, FcγRIIA (CD32a-R131 variant). Briefly: SPR sensorgrams, Example 10; response axis without unit, no time axis; set-up and concentrations not given.
The target in assay [12] is T1, FcγRIIB (CD32b). The assay is described as above. This is another data set of the same source.
The target of assay [13] is T5, FcγRIIA (CD32a-H131 variant). The description is as above.
Assay [14] concerns the target T3, FcγRIIIA (CD16a-V158 variant). The description is as above. The source holds these as a separate data set.

Like-named read-outs stand apart in the source and are kept apart here.

The term Kd denotes the constant that tells how readily two partners part at equilibrium. As usually defined, the EC50 is the concentration that produces a half-maximal response. Higher therefore signals lower potency in that assay.

FcγRI (CD64), sequence (P12314 16-288 limits assumed): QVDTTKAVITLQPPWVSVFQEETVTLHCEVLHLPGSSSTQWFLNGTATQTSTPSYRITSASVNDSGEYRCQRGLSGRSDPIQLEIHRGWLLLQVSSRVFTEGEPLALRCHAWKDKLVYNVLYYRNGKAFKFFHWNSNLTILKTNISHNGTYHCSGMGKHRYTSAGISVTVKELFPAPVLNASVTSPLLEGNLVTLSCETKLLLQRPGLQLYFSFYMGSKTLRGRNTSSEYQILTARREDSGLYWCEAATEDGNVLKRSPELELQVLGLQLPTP
T3 sequence (P08637 other isoform, or with tags, fused parts or gaps mutant limits assumed): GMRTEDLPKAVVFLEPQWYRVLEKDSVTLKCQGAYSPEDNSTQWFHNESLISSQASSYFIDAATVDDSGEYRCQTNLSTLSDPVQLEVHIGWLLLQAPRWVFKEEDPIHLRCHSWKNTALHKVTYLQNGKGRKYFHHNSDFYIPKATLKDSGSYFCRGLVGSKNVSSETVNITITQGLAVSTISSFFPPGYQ
T2 sequence (O75015 other isoform, or with tags, fused parts or gaps mutant limits assumed): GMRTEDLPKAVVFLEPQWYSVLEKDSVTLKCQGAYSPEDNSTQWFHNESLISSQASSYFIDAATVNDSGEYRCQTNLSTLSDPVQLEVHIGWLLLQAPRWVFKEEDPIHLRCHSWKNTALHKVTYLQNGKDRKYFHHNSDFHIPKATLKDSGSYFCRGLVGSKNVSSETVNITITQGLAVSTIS

B1: mAb 0318-IgG1-Aba (antibody)
heavy: not shown
light: DIVLTQSPDSLAVSLGERATINCRASQSVDTFDYSFLHWYQQKPGQPPKLLIYRASNLESGVPDRFSGSGSGTDFTLTISSLQAEDVAVYYCQQSNQDPYTFGQGTKLEIKRTVAAPSVFIFPPSDEQLKSGTASVVCLLNNFYPREAKVQWKVDNALQSGNSQESVTEQDSKDSTYSLSSTLTLSKADYEKHKVYACEVTHQGLSSPVTKSFNRGEC
notes: IgG1 constant region with K214R, C226S, C229S, P238S (EU); also called IgG1-Aba mod; FcAba-1
Regarding B1, the binding result with FcγRIIB (CD32b) [1] is given as “no binding”; in assay [2], “no binding”; in assay [3], “no binding”; in assay [4], “no binding”; in assay [5], “no binding”; with FcγRI (CD64), “binds”.

B2: mAb 0318-IgG1.1f (antibody)
heavy: EVQLVESGGGLVQPGGSLKLSCAASGFTFSTYAMHWVRQASGKGLEWVGRIRTKSSNYATYYAASVKGRFTISRDDSKNTAYLQMNSLKTEDTAVYYCTRDMGIRRQFAYWGQGTLVTVSSASTKGPSVFPLAPSSKSTSGGTAALGCLVKDYFPEPVTVSWNSGALTSGVHTFPAVLQSSGLYSLSSVVTVPSSSLGTQTYICNVNHKPSNTKVDKRVEPKSCDKTHTCPPCPAPEAEGAPSVFLFPPKPKDTLMISRTPEVTCVVVDVSHEDPEVKFNWYVDGVEVHNAKTKPREEQYNSTYRVVSVLTVLHQDWLNGKEYKCKVSNKALPSSIEKTISKAKGQPREPQVYTLPPSREEMTKNQVSLTCLVKGFYPSDIAVEWESNGQPENNYKTTPPVLDSDGSFFLYSKLTVDKSRWQQGNVFSCSVMHEALHNHYTQKSLSLSPG
light: DIVLTQSPDSLAVSLGERATINCRASQSVDTFDYSFLHWYQQKPGQPPKLLIYRASNLESGVPDRFSGSGSGTDFTLTISSLQAEDVAVYYCQQSNQDPYTFGQGTKLEIKRTVAAPSVFIFPPSDEQLKSGTASVVCLLNNFYPREAKVQWKVDNALQSGNSQESVTEQDSKDSTYSLSSTLTLSKADYEKHKVYACEVTHQGLSSPVTKSFNRGEC
notes: IgG1 constant region with L234A, L235E, G237A, A330S, P331S (EU)
Regarding B2, the binding result (in assay [4]; with FcγRI (CD64)) was “binds” in each case.

B3: mAb 0318-IgG1.3f (antibody)
heavy: EVQLVESGGGLVQPGGSLKLSCAASGFTFSTYAMHWVRQASGKGLEWVGRIRTKSSNYATYYAASVKGRFTISRDDSKNTAYLQMNSLKTEDTAVYYCTRDMGIRRQFAYWGQGTLVTVSSASTKGPSVFPLAPSSKSTSGGTAALGCLVKDYFPEPVTVSWNSGALTSGVHTFPAVLQSSGLYSLSSVVTVPSSSLGTQTYICNVNHKPSNTKVDKRVEPKSCDKTHTCPPCPAPEAEGAPSVFLFPPKPKDTLMISRTPEVTCVVVDVSHEDPEVKFNWYVDGVEVHNAKTKPREEQYNSTYRVVSVLTVLHQDWLNGKEYKCKVSNKALPAPIEKTISKAKGQPREPQVYTLPPSREEMTKNQVSLTCLVKGFYPSDIAVEWESNGQPENNYKTTPPVLDSDGSFFLYSKLTVDKSRWQQGNVFSCSVMHEALHNHYTQKSLSLSPGK
light: DIVLTQSPDSLAVSLGERATINCRASQSVDTFDYSFLHWYQQKPGQPPKLLIYRASNLESGVPDRFSGSGSGTDFTLTISSLQAEDVAVYYCQQSNQDPYTFGQGTKLEIKRTVAAPSVFIFPPSDEQLKSGTASVVCLLNNFYPREAKVQWKVDNALQSGNSQESVTEQDSKDSTYSLSSTLTLSKADYEKHKVYACEVTHQGLSSPVTKSFNRGEC
notes: IgG1 constant region with L234A, L235E, G237A (EU)
As for B3, the figures for the equilibrium dissociation constant (Kd) in assay [6] and in assay [7] were 0.64 nM and 3.4 nM, respectively. The binding result (in [4]; with FcγRI (CD64)) was “binds” each time. The “IC50 (nM), estimate of the cynomolgus PK/PD model” value in [8] is 1.9 nM. The molecule further came in with a half-maximal effective concentration (EC50) in [9] of 1.6 nM.

B4: mAb 0318-IgG4-Aba (antibody)
heavy: not shown
light: DIVLTQSPDSLAVSLGERATINCRASQSVDTFDYSFLHWYQQKPGQPPKLLIYRASNLESGVPDRFSGSGSGTDFTLTISSLQAEDVAVYYCQQSNQDPYTFGQGTKLEIKRTVAAPSVFIFPPSDEQLKSGTASVVCLLNNFYPREAKVQWKVDNALQSGNSQESVTEQDSKDSTYSLSSTLTLSKADYEKHKVYACEVTHQGLSSPVTKSFNRGEC
notes: IgG4 CH1 with IgG1 CH2 and CH3, C226S, C229S, P238S (EU); also called IgG4-Aba mod; FcAba-4
For the molecule B4, the binding result in assay [10] is given as “no binding”; with FcγRI (CD64), “binds”; in assay [11], “no binding”; with FcγRIIB (CD32b) [12], “no binding”; in assay [13], “no binding”; in assay [14] it was “no binding”.
